Source: patent EP4324846A1 (Eberhard Karls Universität Tübingen, Medizinische Fakultät, dated 2024)

B1: HB-EGF (R&D Systems 259-HE-050/CF) (ligand, UniProt Q99075 63-148, looked up)
chain: DLQEADLDLLRVTLSSKPQALATPNKEEHGKRKKKGKGLGKKRDPCLRKYKDFCIHGECKYVKELRAPSCICHPGYHGERCHGLSL
notes: Immobilized on a CM5 chip by amine coupling
B2: dd3-1 (designed binder)
chain: ANGIGIGEFKDSLSIWAWNIKHFKNARSISGDLHILPVAFRGDSFTHTPPLEPKELEILKTVKEITGYLLVQAWPENRTDLHAFENLEIIRGRTKQHGQFSLAVVSLNVTSLGLRSLKEISDGDVIMSGNKNLKMANEMNWKKMFGTSGQKTKIISNRGE
notes: Expressed in E. coli from pET-28a(+) and purified on a HisTrap column; also called design

Tests used:
[1] = target: T1, d3-wt (human EGFR domain 3) (human, UniProt P00533 337-504, limits assumed); assay: SPR (Biacore X100), HB-EGF immobilized on CM5, multi-cycle kinetics
T1 construct: Expressed in E. coli from pET-28a(+) and purified on a HisTrap column; Monomeric fraction used; also called wild type d3; wild-type d3 domain

[2] = target: T2, EGF (Peprotech AF-100-15) (UniProt P01133 971-1023); assay: SPR (Biacore X100), EGF immobilized on CM5, multi-cycle kinetics
T2 construct: Immobilized on a CM5 chip by amine coupling; Also added at 400 pM in the A431 proliferation assay; also called epidermal growth factor

[3] = target: T2, EGF (Peprotech AF-100-15); assay: SPR, EGF immobilized; reference d3-wt

T2 sequence (P01133 971-1023 limits assumed): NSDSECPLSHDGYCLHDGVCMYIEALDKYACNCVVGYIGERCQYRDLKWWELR

Binder	Kd [1]	Kd [2]	fold tighter binding than d3-wt [3]
B1	263 nM	–	–
B2	–	10 nM	5 fold
